Results from paper PMC6331805.

Target: T1, NtcA (Synechocystis sp. PCC 6803) (UniProt P33779)
T1 sequence: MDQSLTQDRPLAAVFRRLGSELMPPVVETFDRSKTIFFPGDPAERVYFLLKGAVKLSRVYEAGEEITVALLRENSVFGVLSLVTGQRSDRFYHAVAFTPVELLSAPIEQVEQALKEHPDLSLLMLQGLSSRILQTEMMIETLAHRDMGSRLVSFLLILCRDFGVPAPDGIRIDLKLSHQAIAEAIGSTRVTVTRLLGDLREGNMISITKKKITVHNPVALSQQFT
Experiment: EMSA
Conditions: Roche DIG Gel Shift kit buffer (composition and pH not stated), 2 ng DIG-labeled DNA, 15 min at room temperature, native 8% PAGE; 5 mM MgCl2 in 2-oxoglutarate …

Sequence | binding
TTTGAGCCTAACATTATCCTCCCGTTGCCTTTTTCACCACAGACTTGCCATGGGCGCAATACTCTGTTACATTTATTTACATAGACAACCCTCCCAGCTCGTAATTACAT (double strand) [scpB promoter fragment 110 bp] | binds
ACTCTGACGTACCCATTGACGGGGTAACTTACTCAAGCTAAAAGGTAAAGAATTGTAAACTAAGTTAATTATCCCAGGAAATCCCATGAG (double strand) [scpE promoter fragment 90 bp] | binds
